This is an account of results in patent publication US20110086795A1.

For the test, the target named is Myc-tagged Slo1QEERL. Briefly: cell-based or functional assay.

HA-tagged Slo1VEDEC came in with a reduction in mean surface expression of Slo1 (cell-surface biotinylation, densitometry) of 50%.
